Results taken from patent publication US6187552A, “Method for identifying inhibitors of JAK2/cytokine receptor binding” (Pharmacia & Upjohn Company, priority 1998, dated 2001).
Each block holds one molecule with its values, some of them ahead of it.

Legend:
JAK2 [1] = target: T1, JAK2 (Homo sapiens, UniProt O60674); experiment: SPA: binding of 3H-JAK2 to βc peptides on streptavidin-coated beads; design: NJAK2 = N-terminal 294 residues; details: for activity of C-terminal deletion peptide in the SPA: excess peptide, κ-casein 1 mg/ml; for activity profile in binding 3H-JAK2 (signal): less than saturating peptide, 40 pmole per reaction, FIG. 12A; for overall signals and signal-to-noise ratios, peptide and labeled JAK2 mixed prior to adding beads / activity profile, peptide and labeled JAK2 mixed prior to adding beads: mixed one hour before beads, FIG. 13; for overall signals and signal-to-noise ratios, peptide and labeled JAK2 mixed prior to adding beads: versus peptide bound to bead first; for signal: κ-casein included throughout the assay
T1 sequence (O60674 3-1132): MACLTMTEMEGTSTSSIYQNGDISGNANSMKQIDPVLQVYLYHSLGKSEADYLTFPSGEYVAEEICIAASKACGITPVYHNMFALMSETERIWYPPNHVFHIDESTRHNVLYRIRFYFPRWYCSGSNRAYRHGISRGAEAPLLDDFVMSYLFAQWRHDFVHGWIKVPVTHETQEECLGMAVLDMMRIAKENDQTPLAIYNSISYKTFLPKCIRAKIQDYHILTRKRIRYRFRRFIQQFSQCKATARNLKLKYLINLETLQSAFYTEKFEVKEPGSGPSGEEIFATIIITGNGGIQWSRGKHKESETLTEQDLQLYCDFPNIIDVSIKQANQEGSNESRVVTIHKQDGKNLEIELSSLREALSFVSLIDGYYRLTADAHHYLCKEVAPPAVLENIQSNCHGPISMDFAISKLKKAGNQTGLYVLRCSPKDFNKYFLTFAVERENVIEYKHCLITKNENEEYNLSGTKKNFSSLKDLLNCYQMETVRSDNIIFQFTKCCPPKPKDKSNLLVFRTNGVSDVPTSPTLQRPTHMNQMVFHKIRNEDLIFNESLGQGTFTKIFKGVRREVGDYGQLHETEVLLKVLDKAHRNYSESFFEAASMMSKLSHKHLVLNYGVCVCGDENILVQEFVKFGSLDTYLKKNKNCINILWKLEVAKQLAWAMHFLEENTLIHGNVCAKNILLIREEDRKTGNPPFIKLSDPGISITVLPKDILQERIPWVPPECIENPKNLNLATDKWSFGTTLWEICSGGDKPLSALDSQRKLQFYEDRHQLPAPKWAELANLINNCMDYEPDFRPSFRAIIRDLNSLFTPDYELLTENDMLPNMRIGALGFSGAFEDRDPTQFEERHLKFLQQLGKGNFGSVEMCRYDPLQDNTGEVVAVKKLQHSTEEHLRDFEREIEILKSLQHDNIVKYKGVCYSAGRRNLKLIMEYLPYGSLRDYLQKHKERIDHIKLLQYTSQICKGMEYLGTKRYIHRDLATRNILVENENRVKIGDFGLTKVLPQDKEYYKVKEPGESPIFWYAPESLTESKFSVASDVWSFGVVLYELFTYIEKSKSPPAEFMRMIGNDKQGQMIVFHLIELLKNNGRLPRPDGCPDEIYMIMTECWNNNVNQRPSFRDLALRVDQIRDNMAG
Experimental: Cells were lysed by dounce homogenization (20 strokes) in 1X phosphate buffered saline (PBS), pH 7.5 at 4 C. […] For some experiments, the JAK2 protein (0.15 mg/ml), aliquoted into 7 equivalent tubes, was then subjected to ultracentrifugation in an Airfuge using an A-110 rotor at an average of 164,000×g for a period of 6 hours at ambient temperature. At zero time, and at each subsequent hour thereafter, a tube of JAK2 was removed for analyses (ELISA, SDS polyacrylamide gel electrophoresis, and Western blotting).
(§1) Three different labeling reactions were done using ^3 H-N-succinimidyl propionate (^3 H-NSP, Amersham Life Sciences, Arlington Heights, Ill.). One reaction was done using 0.5 mg of purified JAK2 in 0.1 M borate buffer, pH 8.5, with a reaction volume of 150 μl and an incubation time of one hour on ice with dried 1 mCi of ^3 H-NSP (toluene was removed using a stream of nitrogen). […] Another reaction was done using the buffer 0.1 M sodium phosphate, pH 8.0, and a similar volume as before. One milligram of JAK2 in 1.2 ml of phosphate buffer was incubated for three hours on ice. […] A third reaction was done using 2.5 mg of purified JAK2 in 0.1 m sodium phosphate, pH 8.0, and 2.5 ml volume. It was incubated with 5 mCi of dried ^3 H-NSP on ice for 2 hours. […] All three products were separated from unincorporated label using PD-10 columns (Pharmacia Biotech, Uppsala, Sweden) pre-equilibrated with 20 mM Tris, pH 8.0, 0.15 M NaCl.
(§2) Triplicate reactions were done for each data point. The buffer used in all the assays was 35 mM sodium phosphate, 150 mM NaCl, pH 8.0, 10% glycerol. Biotinylated peptides were allowed to bind to streptavidin-coated SPA beads (Amersham Life Sciences, Arlington Heights, Ill., catalog # RPNQ0006) with either less than saturating peptide or excess peptide. […] Under less than saturating conditions, beads and 40 pmole peptide were added to the assay plate well and incubated for one hour with gentle shaking on a Titer plate shaker (Lab-Line Instruments, Inc., Melrose Park, Ill.) at 600 rpm and not washed. […] The plates were then read on a MicroBeta (Wallac) set to read scintillation due to tritium.
(§3) Either ^3 H-JAK2 or ^3 H-NJAK2 was added to the wells and, after incubation, the signals measured. […] A competition reaction was also done by adding 5 to 10-fold excess unlabeled JAK2 in those reactions.

[2] = target: NJAK2 (N-terminal portion of JAK2) (Homo sapiens, UniProt O60674); experiment: SPA: binding of 3H-NJAK2 (N-terminal JAK2) to βc peptides on streptavidin-coated beads; details: less than saturating peptide, 40 pmole per reaction, FIG. 12B
NJAK2 (N-terminal portion of JAK2), sequence (O60674 1-294 S277G): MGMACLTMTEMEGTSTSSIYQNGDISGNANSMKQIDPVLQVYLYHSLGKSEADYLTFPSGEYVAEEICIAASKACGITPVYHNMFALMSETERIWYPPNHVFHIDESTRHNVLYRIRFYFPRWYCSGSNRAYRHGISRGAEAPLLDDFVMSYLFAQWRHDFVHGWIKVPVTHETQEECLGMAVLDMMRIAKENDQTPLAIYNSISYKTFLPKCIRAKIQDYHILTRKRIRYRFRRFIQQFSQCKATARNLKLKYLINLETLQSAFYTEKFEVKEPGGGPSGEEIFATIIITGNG
Experimental: as §1, §2, §3

JAK2 [3] = target: T1, JAK2; experiment: ELISA binding of JAK2 to immobilized βc peptides; design: Y918N clone error corrected to Tyr; details: for saturation of JAK2 binding at 0.4 μM peptide (ELISA) / binding of JAK2 (ELISA): FIG. 24; for binding of JAK2 (ELISA): biotinylated peptides on streptavidin plate
Experimental: βc peptides corresponding to the proposed JAK2 binding domain (Table 1) were serially diluted and bound 16 hours at room temperature to streptavidin coated 96-well plates (Boehringer-Mannheim, Indianapolis, Ind.) and blocked at 37° with 1% fetal bovine serum in PBS. JAK2 protein was serially diluted on the plate and allowed to bind for 1 hour at room temperature. Plates were washed between incubations with ELISA wash (PBS with 0.04% TWEEN 20). Detection was via anti-FLAG antibody (10 μg/ml, Kodak, New Haven, Conn.) followed by anti-mouse Ig conjugated to peroxidase (1:5000 dilution, Boehringer Mannheim) and 1 mg/ml 2,2'-azinobis(3-ethylbenzthiazolinesulfonic acid) (Sigma), 0.003% H2 O2, 28 mM citric acid, 44 mM Na2 HPO4.
The ELISA assay worked best when the biotinylated βc peptides were immobilized on a streptavidin 96-well plate and the JAK2 was allowed to bind. A dual titration of βc peptides vs. JAK2 was performed (FIG. 24). Peptide 1 [SEQ ID NO:11] (FIG. 24 A) and peptide 2 [SEQ ID NO:12] […] Because 0.4 μM peptide was calculated to saturate the number of biotin binding sites in each well, it was expected that the amount of JAK2 binding should saturate at this quantity of peptide. […] (FIGS. 24 C and D) but peptides 5 and 6 [SEQ ID NOS:15 and 16]

βc/JAK2 binding = experiment: Effect of blocking agents, detergents and DTT on the SPA (signal, background); design: species or system human
Experimental: as §2

JAK2 [4] = target: T1, JAK2; experiment: SPA competition: soluble peptide/streptavidin against peptide 4-coated SPA beads for binding 3H-JAK2; design: Y918N clone error corrected to Tyr
Source text: FIGS. 20 A and B illustrate a test of the ability of streptavidin-peptide 4 complexes to compete for binding of 3H-JAK2 to peptide 4-coated SPA beads. For A, #0 is a beads only control. In all reactions with peptide bound to beads, excess peptide 4 [SEQ ID NO:14] was bound to beads before adding soluble samples. The reaction in #1 is peptide 4 [SEQ ID NO:14] bound to beads only, no added peptide 4 [SEQ ID NO:14] or streptavidin. #2 contained soluble peptide 4/streptavidin at a ratio of 1:1. #3 contained soluble peptide 4/streptavidin at a ratio of 4:1. #4 contained 20 μM peptide 4 added as soluble peptide 4. #5 contained 20 μM streptavidin. […] For B, 0 is a beads only control. In all reactions with peptide bound to beads, excess peptide 4 was bound to beads in the presence of 1 mg/ml κ-casein (as described in Materials and Methods of Example 8) before adding soluble samples. The reaction in #1 is peptide 4 bound to beads only, no added peptide 4 or streptavidin. #2 contained peptide 1/streptavidin at a ratio of 4:1 and #3 contained peptide 4/streptavidin at a ratio of 4:1.
The assay was set up in 96-well plates (Wallac, catalog # 1450-401), Turku, Finland, using a total assay volume of 200, μl/well. Triplicate reactions were done for each data point. The buffer used in all the assays was 35 mM sodium phosphate, 150 mM NaCl, pH 8.0, 10% glycerol. Biotinylated peptides were allowed to bind to streptavidin-coated SPA beads (Amersham Life Sciences, Arlington Heights, Ill., catalog # RPNQ0006) with either less than saturating peptide or excess peptide. For 400 μg SPA beads used per reaction, there was the capacity to bind 49 pmole of biotin (given the binding capacity of 121 pmole biotin/mg bead). Under less than saturating conditions, beads and 40 pmole peptide were added to the assay plate well and incubated for one hour with gentle shaking on a Titer plate shaker (Lab-Line Instruments, Inc., Melrose Park, Ill.) at 600 rpm and not washed. Under conditions of excess peptide, beads and peptide (80 pmole of peptide per 400 μg of bead) were mixed in batch with or without 1 mg/ml K-casein added as described in Results and Discussion, incubated for one hour with rotation, washed three times with buffer and aliquotted into wells. ^3 H-JAK2 or ^3 H-NJAK2 and any other components to be tested were added and the reactions were mixed and incubated for one hour in the dark at room temperature. The plates were then read on a MicroBeta (Wallac) set to read scintillation due to tritium.
The ability of excess peptide 4 [SEQ ID NO: 14] to compete for binding of JAK2 was tested. Biotinylated peptide 4 was bound to streptavidin in solution to mimic the conditions of the peptide 4 bound to the beads. It was used at a ratio of 1:1 (peptide 4: streptavidin) and at a ratio of 4:1 to see whether having multiple peptides on one streptavidin molecule might do a better job of binding JAK2 and therefore of competing. […] This could be due to the free streptavidin pulling some of the peptide 4 [SEQ ID NO: 14] off the bead. […] Another SPA was done using peptide 4 [SEQ ID NO:14] or peptide 1 [SEQ ID NO:11] bound to streptavidin at a ratio of 4:1. […] The results are shown in panel B of FIG. 20.

activity of C-terminal deletion peptide in the SPA (JAK2 [1]; 32.5 nM labeled JAK2, FIG. 21A): slight decrease in the activity
Molecule: GIYGYRLRRKWEEKIPN [CTD-4, C-terminal deletion of peptide 4]

suitability for the ELISA (JAK2 [3]): appear optimal | suitability in the SPA (JAK2 [1]): two most optimal
Molecule: YRLRRKWEEKIPNPSKSHLFQNGSAELWP [peptide 3, βc peptide, N-terminal truncation]
activity profile in binding 3H-NJAK2 (signal) [2]: peptide 4>peptide 3>peptide 5>peptide 6>peptides 1 and 2 | activity profile in binding 3H-JAK2 (signal) (JAK2 [1]): peptide 4>peptide 3>peptide 5>peptide 6>peptides 1 and 2

effect on signal and background (βc/JAK2 binding; κ-casein during binding of excess peptide to beads, washed away, FIG. 15): decreases both signal and background
Molecule: κ-casein

additional effect of dithiothreitol (βc/JAK2 binding; 0.1 or 1 mM DTT with Brij 35 0.0025%, FIG. 19B): no obvious additional effect
Molecule: O[C@H](CS)[C@H](O)CS (racemic) [dithiothreitol]

Molecule: streptavidin [reference compound]
signal with streptavidin alone (JAK2 [4]; 20 μM streptavidin, FIG. 20A): decreases the signal to a greater extent than streptavidin with peptide 4

saturation of JAK2 binding at 0.4 μM peptide (ELISA) (JAK2 [3]): did not show saturation | activity profile, peptide and labeled JAK2 mixed prior to adding beads (JAK2 [1]): same activity profile | signal (JAK2 [1]): very little signal
Molecule: LALRFCGIYGYRLRRKWEEKIPNPSKSHLFQNGSAELWP [peptide 6, βc peptide]
activity profile in binding 3H-NJAK2 (signal) [2]: peptide 4>peptide 3>peptide 5>peptide 6>peptides 1 and 2 | activity profile in binding 3H-JAK2 (signal) (JAK2 [1]): peptide 4>peptide 3>peptide 5>peptide 6>peptides 1 and 2 | overall signals and signal-to-noise ratios, peptide and labeled JAK2 mixed prior to adding beads (JAK2 [1]): lower overall signals and signal-to-noise ratios

activity of C-terminal deletion peptide in the SPA (JAK2 [1]; 10 nM labeled JAK2, FIG. 21B): as active as peptide 4
Molecule: GIYGYRLRRKWEE [CTD-5, C-terminal deletion of peptide 4]

Molecule: bovine serum albumin [BSA]
effect on background (βc/JAK2 binding; BSA 0.1 or 0.5 mg/ml, FIG. 16): no effect | effect on signal (βc/JAK2 binding; BSA 0.1 or 0.5 mg/ml, FIG. 16): slight positive effect

Molecule: EKIPNPSKSHLFQNGSAELWP [peptide 1, βc peptide, N-terminal truncation]
competition for binding of JAK2 (JAK2 [4]; peptide/streptavidin 4:1, beads with 1 mg/ml κ-casein, FIG. 20B): decrease in signal | activity profile in binding 3H-NJAK2 (signal) [2]: gave no signal | binding of JAK2 (ELISA) (JAK2 [3]): no binding activity | activity profile in binding 3H-JAK2 (signal) (JAK2 [1]): gave no signal | overall signals and signal-to-noise ratios, peptide and labeled JAK2 mixed prior to adding beads (JAK2 [1]): lower overall signals and signal-to-noise ratios | activity profile, peptide and labeled JAK2 mixed prior to adding beads (JAK2 [1]): same activity profile | signal (JAK2 [1]): very little signal

saturation of JAK2 binding at 0.4 μM peptide (ELISA) (JAK2 [3]): did not show saturation
Molecule: FCGIYGYRLRRKWEEKIPNPSKSHLFQNGSAELWP [peptide 5, βc peptide, N-terminal truncation]
activity profile in binding 3H-NJAK2 (signal) [2]: peptide 4>peptide 3>peptide 5>peptide 6>peptides 1 and 2 | activity profile in binding 3H-JAK2 (signal) (JAK2 [1]): peptide 4>peptide 3>peptide 5>peptide 6>peptides 1 and 2

activity profile in binding 3H-NJAK2 (signal) [2]: gave no signal | binding of JAK2 (ELISA) (JAK2 [3]): no binding activity | activity profile in binding 3H-JAK2 (signal) (JAK2 [1]): gave no signal
Molecule: RKWEEKIPNPSKSHLFQNGSAELWP [peptide 2, βc peptide, N-terminal truncation]
